Among the data in US20220324960A1 (KINDRED BIOSCIENCES, published 2022) are Kd, koff and kon values, retold here.

Substitutions are numbered along the chain they refer to.

The chains are these.
T1: Canine IL31 (canine)
T1 chain: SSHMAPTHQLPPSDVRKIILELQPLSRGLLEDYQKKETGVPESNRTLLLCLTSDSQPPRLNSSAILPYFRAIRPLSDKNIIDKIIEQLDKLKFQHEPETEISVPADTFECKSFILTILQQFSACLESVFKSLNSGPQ

B1: Caninized VH-VL M14 chimeric antibody (caninized VH of M14 fused to human IgG1 heavy chain and caninized VL of M14 fused to human kappa constant light chain) (antibody, V domains shown)
VH: EVQLVESGPSLVKPGGSLRLTCSVTGDSITSGYWNWIRKFPGNKLEYMGYISYSGITDYNPSLKSRITISRDTSKNQYYLQLNSVTTEDTATYYCARYGNYGYAMDYWGQGTSVTVSS
VL: DIVMTQSPASLSVSLGQRATISCRASESVDTYGNSFMHWYQQKPGQSPKLLIYRASNLESGIPARFGGSGSGTDFTLTIDPVQADDVATYYCQQSYEDPWTFGGGTKLEIK
notes: Chimeric: VH fused to human IgG1 heavy chain, VL fused to human kappa constant light chain; also called analyte 1; caninized VH-VL M14 antibody control
B2: cmVH2 + cmVL2 chimeric antibody (antibody, human IgG1, V domains shown)
VH: B1 VH with N35K, G99P
VL: B1 VL with N34R, Q93Y
notes: also called analyte 3
B3: cmVH2 + cmVL3 chimeric antibody (antibody, human IgG1, V domains shown)
VH: B1 VH with N35K, G99P
VL: B1 VL with N34R, Q93H
notes: also called analyte 4
B4: cmVH3 + cmVL3 chimeric antibody (antibody, human IgG1, V domains shown)
VH: B1 VH with N35K, G99A
VL: B1 VL with N34R, Q93H
notes: also called analyte 6
B5: cmVH3 + cmVL2 chimeric antibody (antibody, human IgG1, V domains shown)
VH: B1 VH with N35K, G99A
VL: B1 VL with N34R, Q93Y
notes: also called analyte 5
B6: cmVH1 + cmVL1 chimeric antibody (antibody, human IgG1, V domains shown)
VH: B1 VH with N35K
VL: B1 VL with N34R
notes: also called analyte 2

The target in the experiment is T1, Canine IL31. Briefly: SPR, BIAcore 8K, Protein A sensor chip. As for the experimental part:
Chimeric antibodies composed of different combinations of cmVH1, cmVH2, or cmVH3 fused to human IgG1 heavy chain and cmVL1, cmVL2, and cmVL3 fused to human kappa constant light chain were generated. Caninized VH of M14 (SEQ ID NO: 3) fused to human IgG1 heavy chain and caninized VL of M14 (SEQ ID NO: 4) fused to human kappa constant light chain was also generated. Affinity of canine IL31 to the different chimeric antibodies was measured using a BIAcore 8K, as described in Table 3 below: […]
Background: In SPR one partner is held on a chip, and binding of the other changes the refractive index at the surface.
What is called Kd is a measure of binding affinity in units of concentration. What is called koff is a measure of how fast the partners let go of each other. A word on the kon: it is the second-order rate constant of association. In the case of B1, the Kd amounted to 2.18 nM, the koff turned out to be 0.000523 s⁻¹ and the kon came to 240000 M⁻¹ s⁻¹.

Take B2: the Kd was 0.914 nM, the koff worked out at 0.000159 s⁻¹ and the kon was determined as 174000 M⁻¹ s⁻¹.

Regarding B3, the Kd was determined as 0.868 nM, the koff was 0.000162 s⁻¹ and the on-rate constant (kon) was 186000 M⁻¹ s⁻¹.

With B4, the Kd was 0.858 nM, the koff was determined as 0.000185 s⁻¹ and the kon is 216000 M⁻¹ s⁻¹.

As for B5, the Kd was 0.9 nM, the koff is 0.000168 s⁻¹ and the association rate constant (kon) is 187000 M⁻¹ s⁻¹.

As to B6, the Kd turned out to be 0.8 nM, the koff came out at 0.000182 s⁻¹ and the kon came out at 228000 M⁻¹ s⁻¹.
